The RNAGym collection of RNA variant scans (doi:10.1021/acssynbio.7b00057)

B1: Pistol ribozyme (parent)
chain: GGGUCGUUGUUCCAUAAUCGCGUGGAUAUGGCACGCAAGUUUCUACCGGGCACCGUAAAUGUCCGACUGGAGCCGUUCGGGCGGCUAUAAACAGACCUCAGGCCCGAAGCGUGGCGGCACCUGCCGCCGGUGGUAAAAAAGAUCGGAAGAGCACACGUCU

Variants of: B1
Test: aptazyme ON/OFF ratio, guanine; higher = stronger switching; co-transcriptional cleavage with and without guanine

Row | Variant | aptazyme ON/OFF ratio
1 | U7A U8A G9A U10A C12U C13U | 1.47
2 | U7A U8A G9A U10A C12U C13G | 1.19
3 | U7A U8A G9A U10A C12U C13A | 1.27
4 | U7A U8A G9A U10G C12G C13U | 1.31
5 | U7A U8A G9A U10G C12G C13A | 1.06
6 | U7A U8A G9A U10G C12G C13G | 1.11
7 | U7A G9U U11A C13G | 1.08
8 | U7A G9U U11A C13A | 1.12
9 | U7A G9U U11A C13U | 1.1
10 | U7A U8A G9A U10C U11G C12U | 1.11
11 | U7A U8A G9A U10C U11G C12G | 1.23
12 | U7A U8A G9A U10C U11G C12A | 1.12
13 | U7A U8A C12A | 1.76
14 | U7A U8A C12U | 1.59
15 | U7A U8A C12G | 1.41
16 | U7A U8A G9A U10A U11C C12G C13A | 1.11
17 | U7A U8A G9A U10A U11C C12G C13U | 1.1
18 | U7A U8A G9A U10A U11C C12G C13G | 1.3
19 | U7A U8A G9A U10C U11C C13U | 1.06
20 | U7A U8A G9A U10C U11C C13A | 1.01
21 | U7A U8A G9A U10C U11C C13G | 0.997
22 | U7A U8A G9A U11C C12U C13A | 1.24
23 | U7A U8A G9A U11C C12U C13G | 1.21
24 | U7A U8A G9A U11C C12U C13U | 1.08

Row | Variant | aptazyme ON/OFF ratio
25 | U7A G9U U10G U11G C13G | 1.17
26 | U7A G9U U10G U11G C13A | 1.22
27 | U7A G9U U10G U11G C13U | 1.11
28 | U7A U8A G9A U10C U11C | 1.03
29 | U7A U8A G9A U10C U11A | 1.22
30 | U7A U8A G9A U10C U11G | 1.14
31 | U7A U8A G9A U10G U11C C12U C13A | 1.07
32 | U7A U8A G9A U10G U11C C12U C13G | 1.19
33 | U7A U8A G9A U10G U11C C12U C13U | 1.23
34 | U7A U8A G9A U10G C12A C13U | 1.2
35 | U7A U8A G9A U10G C12A C13A | 1.21
36 | U7A U8A G9A U10G C12A C13G | 1.12
37 | U7A U8A G9A U10G U11G C13U | 1.07
38 | U7A U8A G9A U10G U11G C13A | 1.19
39 | U7A U8A G9A U10G U11G C13G | 1.21
40 | U7A U8A G9A U10C U11G C12A C13G | 1.09
41 | U7A U8A G9A U10C U11G C12A C13U | 1.12
42 | U7A U8A G9A U10C U11G C12A C13A | 1.09
43 | U7A U8A G9A U10A U11A C12G C13U | 1.13
44 | U7A U8A G9A U10A U11A C12G C13A | 1.14
45 | U7A U8A G9A U10A U11A C12G C13G | 1.28
46 | U7A U8A G9A | 1.87
47 | U7A U8A G9A C12U C13G | 1.12
48 | U7A U8A G9A C12U C13U | 1.17

Row | Variant | aptazyme ON/OFF ratio
49 | U7A U8A G9A C12U C13A | 1.11
50 | U7A U8A G9A U10A U11G C12U | 1.19
51 | U7A U8A G9A U10A U11G C12A | 1.04
52 | U7A U8A G9A U10A U11G C12G | 1.16
53 | U7A G9U U11G C12U C13U | 1.08
54 | U7A G9U U11G C12U C13A | 1.35
55 | U7A G9U U11G C12U C13G | 1.3
56 | U7A U8A G9A U10A U11A C12A C13U | 1.34
57 | U7A U8A G9A U10A U11A C12A C13G | 1.21
58 | U7A U8A G9A U10A U11A C12A C13A | 1.35
59 | U7A U8A G9A U10C U11C C12G C13G | 1.07
60 | U7A U8A G9A U10C U11C C12G C13A | 1.08
61 | U7A U8A G9A U10C U11C C12G C13U | 1
62 | U7A U8A G9A U10A U11C C12A C13G | 1.14
63 | U7A U8A G9A U10A U11C C12A C13A | 1.2
64 | U7A U8A G9A U10A U11C C12A C13U | 1.24
65 | U7A U8A G9A U10C C12G C13G | 1.03
66 | U7A U8A G9A U10C C12G C13A | 1.11
67 | U7A U8A G9A U10C C12G C13U | 1.08
68 | U7A G9U U11A C12A C13A | 1.39
69 | U7A G9U U11A C12A C13U | 1.19
70 | U7A G9U U11A C12A C13G | 1.16
71 | U7A G9U U11C C12G C13G | 1.12
72 | U7A G9U U11C C12G C13A | 1.11

Row | Variant | aptazyme ON/OFF ratio
73 | U7A G9U U11C C12G C13U | 1.12
74 | U7A G9U U10G U11G | 1.1
75 | U7A G9U U10G U11C | 1.06
76 | U7A G9U U11A C12G C13U | 1.25
77 | U7A G9U U11A C12G C13A | 1.08
78 | U7A G9U U11A C12G C13G | 1.12
79 | U7A U8A G9A U10A C12G C13U | 1.28
80 | U7A U8A G9A U10A C12G C13A | 1.24
81 | U7A U8A G9A U10A C12G C13G | 1.15
82 | U7A U8A G9A U10C C12U | 1.23
83 | U7A U8A G9A U10C C12A | 1.1
84 | U7A U8A G9A U10C C12G | 1.05
85 | U7A U8A G9A U11C C12G C13U | 1.09
86 | U7A U8A G9A U11C C12G C13G | 1.14
87 | U7A U8A G9A U11C C12G C13A | 1.1
88 | U7A U8A G9A U10C C12U C13G | 1.15
89 | U7A U8A G9A U10C C12U C13A | 1.01
90 | U7A U8A G9A U10C C12U C13U | 1.19
91 | U7A U8A G9A U10G U11C C12U | 1.05
92 | U7A U8A G9A U10G U11C C12A | 1.26
93 | U7A U8A G9A U10G U11C C12G | 1.13
94 | U7A U8A G9A U10A U11A C12U C13U | 1.14
95 | U7A U8A G9A U10A U11A C12U C13A | 1.17
96 | U7A U8A G9A U10A U11A C12U C13G | 1.23

Row | Variant | aptazyme ON/OFF ratio
97 | U7A U8A G9A U11C C13A | 1.06
98 | U7A U8A G9A U10C U11A C12G | 1.1
99 | U7A U8A G9A U10C U11A C12U | 1.17
100 | U7A U8A G9A U10C U11A C12A | 1.08
101 | U7A U8A C12A C13G | 1.12
102 | U7A U8A C12A C13U | 1.5
103 | U7A U8A C12A C13A | 1.22
104 | U7A G9U U11A C12A | 1.28
105 | U7A G9U U11A C12U | 1.34
106 | U7A G9U U11A C12G | 1.35
107 | U7A G9U U11C C13A | 1.15
108 | U7A G9U U11C C13G | 1.08
109 | U7A G9U U11C C13U | 1.12
110 | U7A U8A G9A U10G U11C C12A C13A | 1.17
111 | U7A U8A G9A U10G U11C C12A C13U | 1.19
112 | U7A U8A G9A U10G U11C C12A C13G | 1.14
113 | U7A U8A C12U C13U | 1.38
114 | U7A U8A C12U C13A | 1.29
115 | U7A U8A C12U C13G | 1.24
116 | U7A U8A G9A U10C | 1.52
117 | U7A U8A G9A U10G | 1.31
118 | U7A U8A G9A U10A | 1.46
119 | U7A U8A G9A U10A U11C C12U C13A | 1.17
120 | U7A U8A G9A U10A U11C C12U C13G | 1.08

Row | Variant | aptazyme ON/OFF ratio
121 | U7A U8A G9A U10A U11C C12U C13U | 1.14
122 | U7A U8A G9A U10A U11A C13A | 1.16
123 | U7A U8A G9A U10A U11A C13G | 1.17
124 | U7A U8A G9A U10A U11A C13U | 1.3
125 | U7A U8A G9A U10G U11C | 1.04
126 | U7A U8A G9A U10G U11G | 1.07
127 | U7A U8A G9A U10G U11A | 1.02
128 | U7A G9U U10G U11C C12A C13U | 1.24
129 | U7A G9U U10G U11C C12A C13A | 1.14
130 | U7A G9U U10G U11C C12A C13G | 1.12
131 | U7A U8A G9A U11A C12A C13G | 1.21
132 | U7A U8A G9A U11A C12A C13U | 1.07
133 | U7A U8A G9A U11A C12A C13A | 1.17
134 | U7A G9U U11G C12U | 1.52
135 | U7A G9U U11G C12A | 1.11
136 | U7A G9U U11G C12G | 1.15
137 | U7A U8A G9A U10G U11G C12G C13A | 1.5
138 | U7A U8A G9A U10G U11G C12G C13U | 1.44
139 | U7A U8A G9A U10G U11G C12G C13G | 1.55
140 | U7A U8A G9A U10G U11A C12A C13G | 1.18
141 | U7A U8A G9A U10G U11A C12A C13U | 1.2
142 | U7A U8A G9A U10G U11A C12A C13A | 1.02
143 | U7A U8A G9A U10A U11C C12U | 1.02
144 | U7A U8A G9A U10A U11C C12A | 1.24

Row | Variant | aptazyme ON/OFF ratio
145 | U7A U8A G9A U10A U11C C12G | 1.17
146 | U7A U8A | 2.94
147 | U7A U8A G9A U10A C12A C13G | 1.23
148 | U7A U8A G9A U10A C12A C13U | 1.09
149 | U7A U8A G9A U10A C12A C13A | 1.11
150 | U7A U8A G9A U11A C12G | 1.24
151 | U7A U8A G9A U11A C12A | 1.26
152 | U7A U8A G9A U11A C12U | 1.35
153 | U7A U8A G9A U10G U11G C12U C13A | 1.25
154 | U7A U8A G9A U10G U11G C12U C13U | 1.14
155 | U7A U8A G9A U10G U11G C12U C13G | 1.31
156 | U7A U8A G9A U10G U11A C12U | 1.03
157 | U7A U8A G9A U10G U11A C12A | 1.15
158 | U7A U8A G9A U10G U11A C12G | 1.13
159 | U7A U8A G9A U10C U11A C12U C13U | 1.03
160 | U7A U8A G9A U10C U11A C12U C13A | 1.1
161 | U7A U8A G9A U10C U11A C12U C13G | 1.16
162 | U7A U8A G9A U10C U11G C12G C13G | 1.15
163 | U7A U8A G9A U10C U11G C12G C13A | 1.11
164 | U7A U8A G9A U10C U11G C12G C13U | 1.08
165 | U7A U8A G9A U10A U11G C12U C13G | 1.24
166 | U7A U8A G9A U10A U11G C12U C13A | 1.3
167 | U7A U8A G9A U10A U11G C12U C13U | 1.3
